{"source": "IntAct's records for PubMed 36833176", "target": "csk21_human CSNK2A1 (UniProt P68400)", "sequence (P68400 whole entry, looked up)": "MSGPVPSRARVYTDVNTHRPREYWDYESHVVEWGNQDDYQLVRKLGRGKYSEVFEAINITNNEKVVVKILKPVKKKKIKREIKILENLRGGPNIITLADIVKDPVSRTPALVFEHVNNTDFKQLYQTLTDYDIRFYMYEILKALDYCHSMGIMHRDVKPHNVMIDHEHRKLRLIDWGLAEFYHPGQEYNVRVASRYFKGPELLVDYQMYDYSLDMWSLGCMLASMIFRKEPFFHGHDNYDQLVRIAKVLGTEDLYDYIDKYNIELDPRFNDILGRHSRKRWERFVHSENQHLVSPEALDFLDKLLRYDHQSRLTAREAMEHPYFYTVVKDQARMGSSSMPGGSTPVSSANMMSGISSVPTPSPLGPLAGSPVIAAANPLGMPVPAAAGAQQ"}
{"substance": "Casein kinase II subunit beta (Homo sapiens), P67870 L39R", "values": [{"measurement": "effect of a mutation on the interaction", "result": "decreasing interaction strength"}]}
